The target of the assay is purified bovine brain tubulin (bovine) (UniProt Q6B856). The assay can be described thus: co-sedimentation; constant Chro-CTD (10 µg) with 0.125–2.5 µM taxol-stabilized microtubules from bovine brain tubulin; bound fraction in pellets by densitometry of immunoblots; Kd from a Lineweaver-Burk plot; three independent experiments.

The term Kd denotes the concentration at which binding is half-saturated.

B1: Chro-CTD (329–926), COOH-terminal domain of Chromator, GST-fusion protein (domain or fragment)
chain: AMDAFKQWVNETVAGDGSSSPSSANEDESSTEQEWPPSSGAIKRKLNNTDSSLEGSGLNDSMDLEDLEEDLPSHTVKRLKNGGSSVQLNKPRIQSTEKQQTKINGNSTVVSPLTEQKMGEIIYTEDSTSSGMFRKPEMPNTINLKKEKPECPVRYLSRSEVGSSTRGVFRVENSEAPAPVSPAPVPQKVIAAPPAAGIAKRLPMARPAHSGANSPITVGQRQHALRTPGHGPVTAALHRRPGVGGASHVRQNLQQAPGRAHPGGRVLARAGVGTPQHRQQVQTPQGAKAVTPEQKILQLSKSGDLKVTRKVVTREELLAQRSAQARQRQALSQQQSSQQQKATPARQRIVSKSTIQPTPLQMELEEEIHQHQAQLCPITGKLIGQEETQLQMEQEQQQEQQREQLEAAAQALLGSDQQVLTNEDGSALLVRGEDGTVYQVAGKNAEGQTILVTQGPDGEQQFAYVAAAEGEDQDVLSLDHAVAEAVQAGEQVESHGVGAATADGEQILVSMTEEELAQHQVLQQAEASAAGTGTPPTAQIHITTSDSDGTESQIPAEVVQADLPSPGGTRRVVLLLQDGTFMMTEMHEDQFKTLNIPT
The molecule B1 had a Kd of 230 nM.

Source of the values: article PMC4114980.
